# Measurements as given in PMC8067709, “Crystal Structure of the Epo1-Bem3 Complex for Bud Growth” (International Journal of Molecular Sciences, 2021).
# B1: Bem3^CC1 (1-99) with 6xHis tag, isolated protein [Saccharomyces cerevisiae] / itself (parent)
# chain: MTDNLTTTHGGSTTLELLAQYNDHRSKKDKSIEHIEKGTCSGKERNPSYDEIFTENIKLKLQVQEYETEIESLEKVIDMLQKNREASLEVVLEQVQNDS
# Variants of: B1
# Test: SEC-MALS (MALS coupled with gel filtration)
# Conditions: read off a plot
row,Variant,molar mass [kDa]
1,MTDNLTTTHGGSTTLELLAQYNDHRSKKDKSIEHIEKGTCSGKERNPSYDEIFTENIKLKLQVQEAETEIESLEKVIDMLQKNREASLEVVLEQVQNDS [chain 1 Y66A],19
2,MTDNLTTTHGGSTTLELLAQYNDHRSKKDKSIEHIEKGTCSGKERNPSYDEIFTEAIKLKLQVQEAETEIESLEKVIDMLQKNREASLEVVLEQVQNDS [chain 1 N56A Y66A],10
3,MTDNLTTTHGGSTTLELLAQYNDHRSKKDKSIEHIEKGTCSGKERNPSYDEIFTEAIKLKLQVQEYETEIESLEKVIDMLQKNREASLEVVLEQVQNDS [chain 1 N56A],17
4,MTDNLTTTHGGSTTLELLAQYNDHRSKKDKSIEHIEKGTCSGKERNPSYDEIFTENIKLKLQVQEYATEIESLEKVIDMLQKNREASLEVVLEQVQNDS [chain 1 E67A],20
5,MTDNLTTTHGGSTTLELLAQYNDHRSKKDKSIEHIEKGTCSGKERNPSYDEIFTEAIKLKLQVQEYATEIESLEKVIDMLQKNREASLEVVLEQVQNDS [chain 1 N56A E67A],18
6,MTDNLTTTHGGSTTLELLAQYNDHRSKKDKSIEHIEKGTCSGKERNPSYDEIFTEAIKLKLQVQEAATEIESLEKVIDMLQKNREASLEVVLEQVQNDS [chain 1 N56A Y66A E67A],9.5
